Laboratory results from patent publication US20080125354A1 (FLORIDA ATLANTIC UNIVERSITY, published 2008).

Assays:
MMP-13 (collagenase 3) = MMP-13 (collagenase 3) (UniProt P45452 20-471, limits assumed); assay: cell-based or functional assay
[1] = biological target: MMP-8 (neutrophil collagenase, collagenase 2) (UniProt P22894 21-467, limits assumed); assay: cell-based or functional assay
MMP-8 (neutrophil collagenase, collagenase 2), sequence (P22894 21-467 limits assumed): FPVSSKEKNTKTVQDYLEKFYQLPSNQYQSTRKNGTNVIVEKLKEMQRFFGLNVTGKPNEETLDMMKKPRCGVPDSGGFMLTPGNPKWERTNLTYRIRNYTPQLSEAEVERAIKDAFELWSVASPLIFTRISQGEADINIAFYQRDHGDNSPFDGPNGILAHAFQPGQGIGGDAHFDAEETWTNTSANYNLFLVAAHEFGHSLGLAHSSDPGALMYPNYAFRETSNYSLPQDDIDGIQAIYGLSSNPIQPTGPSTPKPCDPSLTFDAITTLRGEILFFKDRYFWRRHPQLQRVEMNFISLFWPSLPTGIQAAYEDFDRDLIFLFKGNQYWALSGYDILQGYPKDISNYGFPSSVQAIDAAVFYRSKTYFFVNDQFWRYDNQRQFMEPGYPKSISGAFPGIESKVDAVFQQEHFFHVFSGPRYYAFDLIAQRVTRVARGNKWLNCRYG

B1: phosphinate-containing triple-helical peptide-amphiphile f4, C6-(Gly-Pro-Hyp)5-Gly-Pro-Pro-[Gly~Val]-Val-Gly-Glu-Gln-(Gly-Pro-Hyp)5-NH2 (peptide)
peptide: not shown
modifications: N-terminal hexanoic acid (C6); Hyp (4-hydroxyproline) at 3, 6, 9, 12, 15, 27, 30, 33, 36, 39 (written P in letters); Gly19-Val20 peptide bond replaced by phosphinate psi{PO2H-CH2}; hypothesised phosphino Gly-(L)Val analog; C-terminal amide
notes: One of two RP-HPLC-separated diastereomers of the C6-lipidated peptide; Triple helix of three identical strands by self-assembly; also called Peptide-amphiphile 2; peptide-amphiphile mimic
IC50, inhibition of enzyme activity (fluorogenic substrate) (MMP-13 (collagenase 3)): ~10 µM | IC50, inhibition of enzyme activity (fluorogenic substrate) [1]: ~50 µM

B2: phosphinate-containing triple-helical peptide-amphiphile f3, C6-(Gly-Pro-Hyp)5-Gly-Pro-Pro-[Gly~Val]-Val-Gly-Glu-Gln-(Gly-Pro-Hyp)5-NH2 (peptide)
peptide: not shown
modifications: N-terminal hexanoic acid (C6); Hyp (4-hydroxyproline) at 3, 6, 9, 12, 15, 27, 30, 33, 36, 39 (written P in letters); Gly19-Val20 peptide bond replaced by phosphinate psi{PO2H-CH2}; hypothesised phosphino Gly-(D)Val analog; C-terminal amide
IC50, inhibition of enzyme activity (fluorogenic substrate) (MMP-13 (collagenase 3)): ~10 µM | IC50, inhibition of enzyme activity (fluorogenic substrate) [1]: ~50 µM
